# Reference: US12527879B2, “Ligands targeted to epidermal growth factor receptors and compositions for use in treating tumors” (priority 2019, dated 2026)
# B1: EGFR-s10: soluble scFv generated from phage clone EGFR-PC10; amino acid sequence SEQ ID NO: 9 (protein)
# scFv: EVQLVESGGGLVQPGGSLRLSCAASGFNLSSFWMSWVRQAPGKGLEWVANINHDGSDKYYVDSVKGRFSISRDNTKNSVYLQMDSLRGEDTAVYYCAKGKSLYDGSALDMWGQGTMVTVSSGGGGSGGGGSGGGGSDIVMTQSPSTLSASVGDRVTITCRASQTIGRWLAWYQQKPGKAPKLLIYGASSLQSGVPSRFSGSGSGTDFTLTISSLQPEDFATYYCQQSYSTLWTFGQGTKLEIKR
# modifications: Whole scFv
# B2: EGFR-s10-LD (conjugate)
# scFv: B1 scFv
# modifications: left off: small tags and cut ends
# B3: EGFR-s10-LV (conjugate)
# scFv: B1 scFv
# modifications: left off: small tags and cut ends
# Legend:
# human EGFR-Ex-Fc = target: T1, human EGFR-Ex-Fc (Homo sapiens, UniProt P00533); assay: Recognition of human EGFR-Ex-Fc by EGFR-s10; assay type: binding
# T1 construct: the extracellular domain of human EGFR-Fc fusion protein (EGFR-Ex-Fc); purchased R&D system
# Text: (§1) EGFR s10 recognized both human and marine EGFR-Ex-Fc. This feature eliminates any requirements for a surrogate molecule to evaluate toxicity in murine platforms. After validating internalization of EGFR-s10 in target cells, we fabricated LTLs loaded with doxorubicin or vinorelbine (EGFR-s10-LD and EGFR-s10-LV, respectively) using a thin film method and PEGylation of EGFR-s10. […] The zeta-potentials were all higher than required to prevent formation of aggregates. […] In summary, EGFR-specific binding of EGFR-s10 was retained through chemical processing, and the resulting LTLs fulfilled the requirements of anti-neoplastic liposomal drugs, indicating suitability for further development.
# FaDu cells [1] = assay: Endocytosis assay of soluble EGFR-s10 scFv, FaDu; assay type: cell-based, human; settings: 30 min, confocal microscopy
# Experimental: (§2) Cells were incubated with EGFR-s10 for 30 min at 4° C. or 37° C. Following a PBS wash, the cells were fixed with 2% paraformaldehyde and permeabilized with 0.1% TRITON® X-100. Blocking was accomplished by adding 3% BSA. Mouse ANTI-FLAG antibodies were added to the cells and labeled with FITC anti-mouse IgG. Nuclei were stained with DAPI, and cells were observed on a confocal microscope (TCS-SP5, Leica).
# (§3) We produced soluble scFv from EGFR-PC10 and designated it as EGFR-s10. Target binding and internalization are essential requirements of LTL-targeting moieties. We investigated these features of EGFR-s10 in SCCHN cancer cell lines. FaDu cells and Ca9-22 cells were separately incubated with EGFR-s10 at 4° C. or 37° C. for 30 min and compared with isotypic IgG controls. […] (FIGS. 3A-B).
# marine EGFR-Ex-Fc = target: T2, marine EGFR-Ex-Fc (Mus musculus, UniProt Q01279); assay: Recognition of murine EGFR-Ex-Fc by EGFR-s10; assay type: binding
# T2 construct: the extracellular domain of human EGFR-Fc fusion protein (EGFR-Ex-Fc)
# Text: as §1
# Ca9-22 cells [2] = assay: Endocytosis assay of soluble EGFR-s10 scFv, Ca9-22; assay type: cell-based, human; settings: 30 min, confocal microscopy
# Experimental: as §2, §3
# [3] = Zeta-potential by laser Doppler electrophoresis; assay type: physicochemical
# Experimental: (§4) The average particle size of liposomes was determined by dynamic light scattering (DLS) at 25° C. using Malvern Zetasizer Nano ZS (Malvern instruments) with a 633-nm laser and a detection angle of 90°. The zeta-potential of the liposomes was measured using laser Doppler electrophoresis on the Malvern Zetasizer Nano ZS.
# [4] = Particle size by dynamic light scattering; assay type: physicochemical; settings: DLS at 25° C.
# Experimental: as §4
# FaDu cells [5] = assay: In vitro cytotoxicity assay (WST-1), FaDu; assay type: cell-based, human
# Experimental: (§5) FaDu and Ca9-22 cells were incubated with various concentrations of non-targeted liposomal drugs, or EGFR-s10-conjugated LTLs for 4, 8, 16 and 24 hr. The medium was replaced with complete medium for 48 hr, and 4-[3-(4-iodophenyl)-2-(4-nitrophenyl)-2H-5-tetrazolio]-1,3-benzene disulfonate (WST-1) was added at 0.5 mg/ml. After the cells were incubated for 3 hr at 37° C., the reaction products' absorbance at 440-nm was measured, and half maximal inhibitory concentrations (IC50) were calculated.
# (§6) The cytotoxicity of EGFR-s10-conjugated LTLs was compared to that of non-targeting counterparts in human SCCHN cell lines. Cell viability was analyzed by the WST-1 assay and calculated as percentage of living cells.
# Ca9-22 cells [6] = assay: In vitro cytotoxicity assay (WST-1), Ca9-22; assay type: cell-based, human
# Experimental: as §5, §6
# [7] = test system: Ca9-22 subcutaneous xenograft; assay: Murine subcutaneous Ca9-22 xenograft therapeutic assay; assay type: in vivo; settings: 1.5 mg/kg twice a week for 4 weeks
# Experimental: FaDu and Ca9-22 cells were inoculated s.c. into the flanks of 8- to 10-week-old Nod-SCID mice (1×10^6 cells/mouse). The diameters of the resulting tumors were measured twice per week, and tumor volume was calculated as follows: large diameter×(small diameter)^2×0.52. When tumors reached a mean volume of 350 mm^3, mice with similarly sized tumors were randomized into treatment cohorts (n=8 mice/group). Therapeutic regimens were injected intravenously (i.v.) as PBS, non-targeted liposomal drugs, or EGFR-s10 conjugated LTLs at 1 mg/kg, twice a week for 4 weeks, with a cumulative dose of 8 mg/kg for each group. The tumor volume was monitored twice a week. Premature death endpoints included weight loss greater than 5 g, inability to eat, or tumor volume exceeding 2000 mm^3.
# The LTL treatment confers a statistically significant survival advantage over the non-targeting liposome (p=0.00153) and the median survival time of LTL group was 1.5-times longer than that of NTL group (94 days versus 60 days, respectively; FIG. 5D, upper and lower panels). We also tested singlet vinorelbine treatment in forms of free drug, NTL or LTL, with a dose of 1.5 mg/kg twice a week for 4 weeks in subcutaneously Ca9-22-xenografted NOD/SCID mice.
Molecule,recognition of human EGFR-Ex-Fc (human EGFR-Ex-Fc),binding to cells (FaDu cells [1]; 4° C.),internalization (FaDu cells [1]; 37° C.),recognition of marine EGFR-Ex-Fc (marine EGFR-Ex-Fc),"binding to cells (Ca9-22 cells [2]; Ca9-22, 4° C.)","internalization (Ca9-22 cells [2]; Ca9-22, 37° C.)",ζ-potential [3] [mV],Z-average [4] [nm·days],IC50 relative to non-targeting liposome (FaDu cells [5]) [fold],IC50 relative to non-targeting liposome (Ca9-22 cells [6]) [fold],mean tumor volume compared to NTL vinorelbine [7],weight loss [7]
B1,recognized,bound to the cell membrane,Internalization of EGFR-s10 (scFvs) as cytoplasmic aggregates was observed,recognized,bound to the cell membrane,Internalization of EGFR-s10 (scFvs) as cytoplasmic aggregates was observed,,,,,,
B2,,,,,,,−28.1,125,0.33,0.0028,,
B3,,,,,,,−29.2,115.2,0.21,0.14,smaller,no weight loss was observed
